Results on 167 variants are retold here after the RNAGym collection of RNA variant scans (doi:10.7554/elife.90254).

B1: LINE1-full (parent)
chain: UACGUAGGUGGUUUUCCCCUGAUAGUGCUAAGGGGGCCUGGAAGUUUGGACUGGGCAGAGCUCAACACAGCGUGGCAAAGUGGCUGUGGCUAGACUGCCUCUCUGGAUUCCUCGUCACUCAGCAGGGCAUCUCUGAGAGAAAUGCC

The variants in this data set derive from B1. Description: self-cleavage, relative activity (ratio to wild type); higher = more cleavage; in vitro, sequencing; the parent is a self-cleaving ribozyme.
Consider U47C C118A, for which the self-cleavage turned out to be 0.46. With U47C G114A, the self-cleavage was 1.66. In the case of U46C G89A it was 0.04. The figure for U46A U87C is 0.19; for G48U A57U it is 0.08.

G48U A64G: the self-cleavage turned out to be 0.18. In the case of G49U C71U it was 0.71; in that of U46C U130A, 1.68; in that of U46C U130C, 1.54. In the case of U46G A129G it was 1.93.

As to U47G U85A, the self-cleavage was 0.05. For the variant U47G U85C, the self-cleavage was 0.33. On to U46C C66U, for which the self-cleavage stood at 0.02.

Consider U46C U87C, for which the self-cleavage is 0.43. The figure for U46C U87A is 0.13; for U46C A67U it is 0.12. Take U47A U104A: the self-cleavage was found to be 0.59.

Turning to G49C A59G, the self-cleavage was 0.12.

In the case of G48A A65G, the self-cleavage is 0.03. Regarding G49A U73C, the self-cleavage amounted to 2.51.

As for U46C G55A, the self-cleavage was 0.59. In the case of U47A U132C it was 1.41; in that of U47A G106A, 1.3. In the case of G48A G122A it was 1.27. As for U47G U96C, the self-cleavage is 0.21. In the case of U47A A94G it was 0.23. The figure for G49U A140U is 0.8. In the case of U46A U104A it was 0.9; in that of U46C U112C, 1.78; in that of U46C U112A, 1.26. Turning to U46C A129C, the self-cleavage is 1.99. With U47C A129G, the self-cleavage stood at 1.49. In the case of U46C A59G it was 0.16; in that of U47A G53A, 1.23; in that of U46C U47C, 1.95. In the case of U46C U47A it was 1.37; in that of G49A A107G, 0.73; in that of U47A U143G, 1.2. In the case of U47A U143A it was 1.27; in that of U47A A124C, 1.18.

On to U47C A50G, for which the self-cleavage came out at 1.14. Consider U47C A50C, for which the self-cleavage came to 0.94. In the case of U47G U112C it was 0.8.

With U47G U112A, the self-cleavage was determined as 0.94. U47C A77U: the self-cleavage stood at 1.2. In the case of U47C A77G it was 2.3. On to U46C U85G, for which the self-cleavage amounted to 0.37. In the case of U46C U85C it was 0.35; in that of U46C C68U, 0.44; in that of U47C U115C, 2.06. Turning to U46C U109C, the self-cleavage amounted to 1.41. In the case of G49U U96A, the self-cleavage amounted to 0.02. G49U U96C: the self-cleavage was 0.11. In the case of U47C G127A it was 1.31; in that of U47C G127C, 1.23. The figure for G49A A79G is 0.97; for U47G G135A it is 0.79.

U46G A78G: the self-cleavage was found to be 0.6. On to G49A A77U, for which the self-cleavage came out at 0.86. The figure for U47C G60A is 0.03; for U46C U91A it is 0.53.

G48U G88C: the self-cleavage is 0.04. The figure for U46A U73C is 1.5. The figure for U47C G75C is 0.97; for G48A A94U it is 0.18; for G48A A94G it is 0.13.

Turning to U47C C56U, the self-cleavage amounted to 0.42. The figure for U47A A77G is 2.01. As to G48U U81A, the self-cleavage was 1.8. U47A C56U: the self-cleavage was determined as 0.14.

Take U46A U130G: the self-cleavage stood at 1.39. In the case of U46C A107G it was 1.06; in that of U46C A107U, 1.53.

U47C C128U: the self-cleavage is 1.42. In the case of U46C A69C it was 0; in that of U46C A69U, 0.07. With U46C A69G, the self-cleavage was found to be 0.85. In the case of G49U G70A it was 0.04.

Consider G48A A140G, for which the self-cleavage worked out at 1.02. In the case of U47C A117C it was 1.96; in that of U46C C56A, 0.28. The figure for U47C U52A is 1.72. U47C G126A: the self-cleavage was determined as 1.84. The figure for G49A U81A is 1.95.

For the variant U47G A79U, the self-cleavage was 2.35. As to U47G C113A, the self-cleavage came to 1.6. The figure for U47G C146A is 1.22; for U47G C146U it is 1.69. The figure for G49A U91G is 0.04. The figure for U47A A67U is 0.12. Regarding U47C U109A, the self-cleavage is 1.6. In the case of U47C U109C it was 1.61; in that of U47A U96A, 0.08.

For the variant U47A U85G, the self-cleavage is 0.17. The figure for U47A U85A is 0.04; for G48A A117G it is 1.47. Consider U47A U87C, for which the self-cleavage stood at 0.19.

Turning to U46C U119G, the self-cleavage came out at 1.02. In the case of U46C U119C, the self-cleavage is 1.13. The figure for U46C U119A is 1.26; for U47C G88A it is 0.07; for U46A U134C it is 1.84. In the case of U47A C84A it was 0.14; in that of U47A C84U, 0.09.

U46C A136U: the self-cleavage stood at 1.44.

Consider U47C A142G, for which the self-cleavage came out at 1.5. The figure for U47G A77U is 0.94. The figure for U47G A77G is 1.09; for U46C A57C it is 0.31. In the case of U46C A57G it was 1.04. With U47C U73A, the self-cleavage was found to be 2.06. The figure for U47C U73G is 1.38. In the case of U47C U73C it was 1.55; in that of G49A U134C, 0.75; in that of G49A U134A, 1.05. For the variant U47G A124G, the self-cleavage amounted to 0.56. As to U47A A117G, the self-cleavage was 1.38. In the case of U47A A117U, the self-cleavage was determined as 1.25. Regarding U47A A117C, the self-cleavage worked out at 1.32. As to U47A A64G, the self-cleavage worked out at 0.2.

In the case of U47C A107G, the self-cleavage is 1.43. In the case of U46A U91C it was 0.63; in that of U46G U132A, 1.4.

As to G48A U102C, the self-cleavage was determined as 1.94. A50C A57U: the self-cleavage came to 0.

In the case of U46C U100C, the self-cleavage amounted to 1.89. The figure for U46C A138C is 0; for U46C A138G it is 1.29.

Consider U47C G105A, for which the self-cleavage came to 1.45. The figure for G48A U130A is 0.91. In the case of U47A C128U it was 1.39; in that of U46C G139U, 1.7.

As for U46G A79U, the self-cleavage came to 2.15.

Take U47G U81C: the self-cleavage stood at 0. In the case of U47G U81A it was 1.81; in that of U47C U62C, 0.12; in that of U47C U62A, 0.04.

Take G49U U132C: the self-cleavage was determined as 1.06. In the case of G49U U132A it was 1.31. The figure for G49U U91C is 0.46. In the case of G49A U87C it was 0.21; in that of U47C A92U, 0.77.

With U47C U132C, the self-cleavage came to 1.62.

For the variant U47C U132A, the self-cleavage amounted to 0.93. In the case of U46C A121U it was 1.25.

Take U46C A78U: the self-cleavage was 1.85. The figure for U47C U102A is 1.84; for G48A G49U it is 0.57; for G49C A121G it is 0.93.

For the variant U47G A136U, the self-cleavage worked out at 1.53. The figure for G49U U119C is 1.2; for U47C A69G it is 0.44. The figure for U46C G126A is 0.59; for G48A G144U it is 1.46; for G49C A138G it is 1.59. The figure for U46C G105A is 1.16; for U46C C128U it is 0.6.

As for U47G U119A, the self-cleavage is 1.32. The figure for U46C U115A is 1.58; for U46C U115G it is 0; for G48A A129G it is 1.54. The figure for U47G A107G is 1.24. In the case of U46C A64G, the self-cleavage worked out at 0.38. For U47G U130C, the self-cleavage was 1.24. For the variant U47A C61A, the self-cleavage is 0.03. In the case of U46G G72A it was 1.07; in that of U46C A117C, 2.44.
